Data: patent US20250076311A1 (Chugai, published 2025)
Numbering of substitutions follows the chain as printed. Names and notes keep the numbering of the source.

B1: GpH7-B3 L328T / GpL16-k0 (antibody, human IgG1, kappa)
heavy: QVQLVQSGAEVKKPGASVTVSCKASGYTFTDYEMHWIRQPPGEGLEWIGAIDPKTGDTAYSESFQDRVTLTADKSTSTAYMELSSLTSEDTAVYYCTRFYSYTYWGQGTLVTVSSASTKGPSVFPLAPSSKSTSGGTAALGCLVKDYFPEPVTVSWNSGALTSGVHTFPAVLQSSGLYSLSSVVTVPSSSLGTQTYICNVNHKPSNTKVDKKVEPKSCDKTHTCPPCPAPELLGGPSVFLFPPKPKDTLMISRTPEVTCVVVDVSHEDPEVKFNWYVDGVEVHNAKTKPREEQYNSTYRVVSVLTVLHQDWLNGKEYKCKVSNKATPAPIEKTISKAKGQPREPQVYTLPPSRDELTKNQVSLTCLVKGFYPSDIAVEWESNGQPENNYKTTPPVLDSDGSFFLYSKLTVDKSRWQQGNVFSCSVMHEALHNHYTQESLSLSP
light: DIVMTQSPLSLPVTPGEPASISCQASESLVHSNRNTYLHWYLQKPGQSPQLLIYKVSNRFSGVPDRFSGSGSGTDFTLKISRVEAEDVGVYYCSQNTHVPPTFGQGTKVEIERTVAAPSVFIFPPSDEQLKSGTASVVCLLNNFYPREAKVQWKVDNALQSGNSQESVTEQDSKDSTYSLSSTLTLSKADYEKHKVYACEVTHQGLSSPVTKSFNRGEC
notes: also called B3 variant L328T
B2: GpH7-B3 K334I / GpL16-k0 (antibody, human IgG1, kappa)
heavy: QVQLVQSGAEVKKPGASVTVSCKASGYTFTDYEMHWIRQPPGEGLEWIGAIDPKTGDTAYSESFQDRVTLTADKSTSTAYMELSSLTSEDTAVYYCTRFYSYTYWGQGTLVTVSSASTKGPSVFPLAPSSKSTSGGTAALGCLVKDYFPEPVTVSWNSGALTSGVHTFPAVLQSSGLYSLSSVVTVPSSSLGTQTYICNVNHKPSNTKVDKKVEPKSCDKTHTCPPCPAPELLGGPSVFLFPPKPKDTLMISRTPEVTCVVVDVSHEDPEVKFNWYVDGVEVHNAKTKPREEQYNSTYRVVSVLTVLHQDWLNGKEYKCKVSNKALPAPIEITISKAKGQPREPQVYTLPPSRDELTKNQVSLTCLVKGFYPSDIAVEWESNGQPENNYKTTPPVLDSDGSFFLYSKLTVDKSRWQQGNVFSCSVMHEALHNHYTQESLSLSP
light: B1 light
notes: also called B3 variant K334I
B3: GpH7-B3 S239N / GpL16-k0 (antibody, human IgG1, kappa)
heavy: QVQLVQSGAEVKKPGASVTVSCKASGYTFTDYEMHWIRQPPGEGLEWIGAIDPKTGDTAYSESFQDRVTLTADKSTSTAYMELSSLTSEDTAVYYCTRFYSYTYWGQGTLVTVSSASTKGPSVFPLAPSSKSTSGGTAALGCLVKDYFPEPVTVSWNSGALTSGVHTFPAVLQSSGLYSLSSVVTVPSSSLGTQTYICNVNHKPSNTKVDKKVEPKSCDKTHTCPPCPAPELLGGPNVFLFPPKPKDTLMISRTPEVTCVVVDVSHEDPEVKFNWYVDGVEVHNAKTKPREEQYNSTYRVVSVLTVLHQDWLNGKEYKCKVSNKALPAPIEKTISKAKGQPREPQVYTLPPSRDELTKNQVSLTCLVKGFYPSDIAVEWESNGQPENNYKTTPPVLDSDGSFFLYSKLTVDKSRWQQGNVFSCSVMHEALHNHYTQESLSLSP
light: B1 light
notes: also called B3 variant S239N
B4: GpH7-B3 S239V / GpL16-k0 (antibody, human IgG1, kappa)
heavy: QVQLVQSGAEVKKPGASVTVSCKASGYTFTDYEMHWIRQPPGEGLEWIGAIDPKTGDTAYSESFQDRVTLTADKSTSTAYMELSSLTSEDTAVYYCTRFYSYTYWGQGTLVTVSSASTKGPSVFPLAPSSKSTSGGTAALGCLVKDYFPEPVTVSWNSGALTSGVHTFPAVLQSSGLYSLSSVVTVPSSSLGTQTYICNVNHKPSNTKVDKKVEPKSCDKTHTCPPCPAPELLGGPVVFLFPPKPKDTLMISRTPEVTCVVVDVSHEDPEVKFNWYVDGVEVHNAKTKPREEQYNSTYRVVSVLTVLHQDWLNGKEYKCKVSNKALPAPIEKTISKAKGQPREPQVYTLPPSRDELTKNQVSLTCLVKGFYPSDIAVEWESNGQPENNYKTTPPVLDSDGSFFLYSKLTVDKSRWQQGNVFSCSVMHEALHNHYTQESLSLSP
light: B1 light
notes: also called B3 variant S239V
B5: GpH7-B3 S298L / GpL16-k0 (antibody, human IgG1, kappa)
heavy: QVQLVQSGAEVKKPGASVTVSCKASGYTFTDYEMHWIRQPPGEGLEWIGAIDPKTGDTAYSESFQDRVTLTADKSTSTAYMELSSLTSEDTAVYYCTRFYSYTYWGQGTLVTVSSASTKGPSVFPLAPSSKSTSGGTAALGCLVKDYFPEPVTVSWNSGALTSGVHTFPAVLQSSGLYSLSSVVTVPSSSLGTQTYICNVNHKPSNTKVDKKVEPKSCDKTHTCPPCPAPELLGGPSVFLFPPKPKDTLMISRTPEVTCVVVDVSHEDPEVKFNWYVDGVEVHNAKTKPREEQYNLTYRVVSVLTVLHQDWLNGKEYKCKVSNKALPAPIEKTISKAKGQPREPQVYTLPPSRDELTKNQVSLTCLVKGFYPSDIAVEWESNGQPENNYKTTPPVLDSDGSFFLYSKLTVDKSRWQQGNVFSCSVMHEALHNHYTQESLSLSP
light: B1 light
notes: also called B3 variant S298L
B6: GpH7-B3 Q295L / GpL16-k0 (antibody, human IgG1, kappa)
heavy: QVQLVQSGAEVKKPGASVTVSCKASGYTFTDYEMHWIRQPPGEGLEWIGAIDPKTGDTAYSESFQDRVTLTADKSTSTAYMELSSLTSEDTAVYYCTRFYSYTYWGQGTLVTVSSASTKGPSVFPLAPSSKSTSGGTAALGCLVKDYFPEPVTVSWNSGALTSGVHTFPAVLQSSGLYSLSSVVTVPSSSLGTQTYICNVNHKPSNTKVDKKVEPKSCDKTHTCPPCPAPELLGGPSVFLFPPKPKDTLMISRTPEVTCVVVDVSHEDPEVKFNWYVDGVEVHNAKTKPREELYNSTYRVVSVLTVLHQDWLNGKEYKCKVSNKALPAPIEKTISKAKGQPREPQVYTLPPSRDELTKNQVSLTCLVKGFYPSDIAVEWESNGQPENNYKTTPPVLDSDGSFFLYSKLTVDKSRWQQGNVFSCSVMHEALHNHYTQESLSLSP
light: B1 light
notes: also called B3 variant Q295L
B7: GpH7-B3 S239I / GpL16-k0 (antibody, human IgG1, kappa)
heavy: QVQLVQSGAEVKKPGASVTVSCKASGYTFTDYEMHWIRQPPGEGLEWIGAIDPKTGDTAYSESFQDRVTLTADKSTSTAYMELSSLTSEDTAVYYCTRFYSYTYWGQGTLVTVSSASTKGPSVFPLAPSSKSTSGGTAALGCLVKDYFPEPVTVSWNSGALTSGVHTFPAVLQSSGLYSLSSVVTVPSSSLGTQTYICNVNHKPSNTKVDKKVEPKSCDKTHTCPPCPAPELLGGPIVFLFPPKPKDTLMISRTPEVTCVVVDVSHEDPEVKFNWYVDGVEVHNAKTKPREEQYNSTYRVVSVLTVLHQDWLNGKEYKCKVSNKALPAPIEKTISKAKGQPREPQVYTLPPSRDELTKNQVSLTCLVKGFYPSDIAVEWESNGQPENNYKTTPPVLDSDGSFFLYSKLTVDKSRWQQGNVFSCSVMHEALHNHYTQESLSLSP
light: B1 light
notes: also called B3 variant S239I
B8: GpH7-B3 P331E / GpL16-k0 (antibody, human IgG1, kappa)
heavy: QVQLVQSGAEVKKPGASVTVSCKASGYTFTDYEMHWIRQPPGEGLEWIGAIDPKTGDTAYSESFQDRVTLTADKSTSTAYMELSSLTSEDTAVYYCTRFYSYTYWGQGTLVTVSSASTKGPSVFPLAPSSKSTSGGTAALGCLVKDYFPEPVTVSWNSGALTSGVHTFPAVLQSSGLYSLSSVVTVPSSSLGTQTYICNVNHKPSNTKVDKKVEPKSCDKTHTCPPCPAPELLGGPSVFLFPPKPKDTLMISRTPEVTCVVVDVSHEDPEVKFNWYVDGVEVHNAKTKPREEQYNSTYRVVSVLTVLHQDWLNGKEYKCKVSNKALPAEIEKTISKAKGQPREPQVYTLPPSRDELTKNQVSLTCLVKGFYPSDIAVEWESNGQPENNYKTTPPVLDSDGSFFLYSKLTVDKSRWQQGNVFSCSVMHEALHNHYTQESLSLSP
light: B1 light
notes: also called B3 variant P331E
B9: GpH7-B3 S267A / GpL16-k0 (antibody, human IgG1, kappa)
heavy: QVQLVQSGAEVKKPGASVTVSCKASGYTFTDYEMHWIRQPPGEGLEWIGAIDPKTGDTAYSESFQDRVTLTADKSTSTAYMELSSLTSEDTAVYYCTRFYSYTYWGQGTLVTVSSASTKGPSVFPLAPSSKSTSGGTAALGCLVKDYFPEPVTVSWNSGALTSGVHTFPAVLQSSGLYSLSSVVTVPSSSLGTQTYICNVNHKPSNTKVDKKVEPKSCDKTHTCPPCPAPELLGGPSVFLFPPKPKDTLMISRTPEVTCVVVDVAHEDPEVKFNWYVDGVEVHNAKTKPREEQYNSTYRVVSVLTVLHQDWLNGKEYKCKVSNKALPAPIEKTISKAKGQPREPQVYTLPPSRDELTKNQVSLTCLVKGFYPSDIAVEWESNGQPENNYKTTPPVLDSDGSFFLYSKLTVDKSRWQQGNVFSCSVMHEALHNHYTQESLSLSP
light: B1 light
notes: also called B3 variant S267A
B10: GpH7-B3 P271G / GpL16-k0 (antibody, human IgG1, kappa)
heavy: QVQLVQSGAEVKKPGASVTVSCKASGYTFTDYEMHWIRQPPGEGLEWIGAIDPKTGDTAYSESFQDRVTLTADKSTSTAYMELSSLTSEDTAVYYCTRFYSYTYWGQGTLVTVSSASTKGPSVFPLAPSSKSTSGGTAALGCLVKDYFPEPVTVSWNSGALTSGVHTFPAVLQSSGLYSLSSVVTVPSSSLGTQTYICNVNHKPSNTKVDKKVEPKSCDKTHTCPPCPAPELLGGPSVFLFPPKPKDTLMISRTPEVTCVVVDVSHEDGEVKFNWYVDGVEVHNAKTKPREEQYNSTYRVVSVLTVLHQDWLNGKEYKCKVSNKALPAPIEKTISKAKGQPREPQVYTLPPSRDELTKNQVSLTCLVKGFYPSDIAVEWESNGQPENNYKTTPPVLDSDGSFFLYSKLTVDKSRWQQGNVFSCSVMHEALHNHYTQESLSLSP
light: B1 light
notes: also called B3 variant P271G

biological target: T1, human FcγRIIb extracellular domain, His-tagged (human, UniProt P31994 43-217); assay: SPR (Biacore), 25C, FcgR bound per antibody captured
T1 construct: also called human FcgRIIb
T1 sequence: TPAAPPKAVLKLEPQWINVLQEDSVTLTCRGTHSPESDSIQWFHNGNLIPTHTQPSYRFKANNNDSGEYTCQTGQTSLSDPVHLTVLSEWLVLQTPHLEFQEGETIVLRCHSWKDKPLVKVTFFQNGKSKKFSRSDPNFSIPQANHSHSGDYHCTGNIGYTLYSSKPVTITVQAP

Binder | Binding to human FcgRs (parent B3 = 100)
B1 | 179
B2 | 174
B3 | 124
B4 | 107
B5 | 114
B6 | 156
B7 | 108
B8 | 100
B9 | 283
B10 | 252

biological target: T2, human FcγRIIaH extracellular domain, His-tagged (human, UniProt P12318 34-217); assay: as above
T2 construct: also called human FcgRIIaH; FcγRIIa type H
T2 sequence: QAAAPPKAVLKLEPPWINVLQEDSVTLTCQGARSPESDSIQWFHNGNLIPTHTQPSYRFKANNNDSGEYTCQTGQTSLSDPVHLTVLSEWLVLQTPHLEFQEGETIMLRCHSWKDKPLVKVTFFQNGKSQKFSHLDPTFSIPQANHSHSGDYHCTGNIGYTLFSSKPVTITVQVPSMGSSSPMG

Binder | Binding to human FcgRs (parent B3 = 100)
B1 | 156
B2 | 169
B3 | 99
B4 | 79
B5 | 99
B6 | 128
B7 | 82
B8 | 96
B9 | 176
B10 | 152

biological target: T3, human FcγRIIIaV extracellular domain, His-tagged (human, UniProt P08637 17-208); assay: as above
T3 construct: also called human FcgRIIIaV
T3 sequence (P08637 17-208 F176V): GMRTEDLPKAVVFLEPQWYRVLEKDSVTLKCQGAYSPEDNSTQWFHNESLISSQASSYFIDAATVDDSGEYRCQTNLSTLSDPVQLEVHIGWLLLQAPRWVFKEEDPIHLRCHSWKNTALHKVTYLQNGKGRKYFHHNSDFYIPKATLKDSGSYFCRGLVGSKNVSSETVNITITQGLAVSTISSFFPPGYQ

Binder | Binding to human FcgRs (parent B3 = 100)
B1 | 53
B2 | 187
B3 | 111
B4 | 48
B5 | 51
B6 | 135
B7 | 47
B8 | 46
B9 | 145
B10 | 93

Biological target: T4, human FcγRIIaR extracellular domain, His-tagged (human, UniProt P12318 34-217)
T4 construct: also called human FcgRIIaR; FcγRIIa type R
T4 chain: T2 sequence with H134R
Assay: as above

Binder | Binding to human FcgRs (parent B3 = 100)
B1 | 135
B2 | 137
B3 | 80
B4 | 71
B5 | 71
B6 | 148
B7 | 75
B8 | 67
B9 | 125
B10 | 130
